The record followed here is publication PMC5715728.

The experiment has as its target major capsid protein (MCP) (human cytomegalovirus (HCMV) strain AD169) (UniProt P16729). Nature of the experiment: cryo-EM structure.

As usually defined, the stoichiometry N is the number of molecules, sites or subunits per partner or assembly. With “smallest capsid protein (SCP) (from UniProt Q7M6N6 1-75) (natural protein)”, the stoichiometry N is 1.
